Measured values from patent EP4559472A1 (Universität Ulm, dated 2025).

Molecular target: T1, Biotinylated C4d (UniProt P0C0L4 957-1336, limits assumed, biotinylated (thioester moiety; NHS-PEG4-Biotin Kit))
T1 construct: domain: C4d; also called C4d (biotinylated, on streptavidin sensor chip)
T1 sequence (looked up): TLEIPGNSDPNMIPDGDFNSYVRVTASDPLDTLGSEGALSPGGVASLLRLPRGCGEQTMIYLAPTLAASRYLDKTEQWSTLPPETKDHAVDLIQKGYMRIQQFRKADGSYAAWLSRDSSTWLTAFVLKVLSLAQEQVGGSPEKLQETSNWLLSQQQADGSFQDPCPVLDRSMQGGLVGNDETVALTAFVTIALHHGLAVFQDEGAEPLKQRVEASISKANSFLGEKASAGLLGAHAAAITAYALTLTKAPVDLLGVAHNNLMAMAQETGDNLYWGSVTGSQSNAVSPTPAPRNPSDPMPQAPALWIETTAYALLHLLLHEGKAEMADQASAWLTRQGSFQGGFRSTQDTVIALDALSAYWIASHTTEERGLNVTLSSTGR
Assay: SPR, biotinylated C4d on streptavidin chip

- binding result: no binding
B1: FH(15-18) (other, human, UniProt P08603 868-1104, looked up)
chain: IPCSQPPQIEHGTINSSRSSQESYAHGTKLSYTCEGGFRISEENETTCYMGKWSSPPQCEGLPCKSPPEISHGVVAHMSDSYQYGEEVTYKCFEGFGIDGPAIAKCLGEKWSHPPSCIKTDCLSLPSFENAIPMGEKKDVYKAGEQVTYTCATYYKMDGASNVTCINSRWTGRPTCRDTSCVNPPTVQNAYIVSRQMSKYPSGERVRYQCRSPYEMFGDEEVMCLNGNWTEPPQCKD
notes: domain: protein domains 15-18; Control protein; also called protein domains 15-18 of FH
